Data on 4 substances can be found in US20040202655A1.

“And” between values parts separate entries of the source, which are not always exact repeats. Equal entries are not always repeated. A value given as a limit tells only on which side of the number the result lay.

The target in test [1] is human IGF-I receptor on cells (NIH-3T3 fibroblasts expressing the human IGF-IR; DU145 cells) (human) (UniProt P08069). Description: competition with 125I-IGF-II, NIH-3T3 cells expressing human IGF-1R, 37 C.
Test [2] has the same target. Nature of the test: cell-based or functional assay.
For test [3] the target is unchanged. Description: competition with 125I-IGF-I, NIH-3T3 cells expressing human IGF-1R, 37 C.
The target is the same in test [4]. Description: competition with 125I-IGF-II, NIH-3T3 cells expressing human IGF-1R, 4 C.
Test [5] has the same target. Nature of the test: competition with 125I-IGF-I, NIH-3T3 cells expressing human IGF-1R, 4 C.

The IC50 is the midpoint of a concentration-inhibition curve. Read a low IC50 as greater potency in that assay. Turning to “MOPC-21 (#M-7894, Sigma), IgG1 isotype control (antibody)”, the IC50 in test [1] and in test [3] was greater than 50 nM in each case. The IC50 (nM), IGF-1 dependent proliferation of NIH-3T3/hIGF-1R cells (BrdU ELISA) in test [2] is greater than 70 nM.

Substance “UPC-10 (#F-0528), IgG2a isotype control (antibody)” showed an IC50 in test [1] greater than 50 nM. Moreover, the IC50 (nM), IGF-1 dependent proliferation of NIH-3T3/hIGF-1R cells (BrdU ELISA) in test [2] is greater than 70 nM.

Regarding “mouse anti-IGF-1R monoclonal antibody 24-57 (#MS-643-PABX, NeoMarkers)”, the IC50 in test [4] was 1 nM and 0.6 nM; in test [1], 4 nM and 6.5 nM; in test [3], 1.7 nM and 1.9 nM; in test [5], 3 nM and 1.5 nM and 4 nM.

On to “mouse anti-IGF-1R monoclonal antibody alpha IR3 (#GR11SP2, Oncogene Research Products)”, for which the IC50 in test [1] was greater than 50 nM; in test [3], 1.6 nM and 1.9 nM; in test [5] it was 3.5 nM. In test [2], this substance registered an IC50 (nM), IGF-1 dependent proliferation of NIH-3T3/hIGF-1R cells (BrdU ELISA) greater than 70 nM.
